Test results as given in patent US20240218048.

Tests used:
[1] = tested on: factor VIII expressed by F8-BDD-299
[2] = tested on: factor VIII expressed by F8-BDD-N8
[3] = tested on: factor VIII expressed by F8-BDD (normal unmodified B-domain-deleted F8)

## Thrombin (FIIa)
[1]
  activity of factor VIII after thrombin was added (substrate luminescence assay, every two minutes): From the second minute, the activity of factor VIII expressed by F8-BDD-299 is significantly increased
[2]
  activity of factor VIII after thrombin was added (substrate luminescence assay, every two minutes): the activity of factor VIII expressed by F8-BDD and F8-BDD-N8 is slightly increased
[3]
  activity of factor VIII after thrombin was added (substrate luminescence assay, every two minutes): the activity of factor VIII expressed by F8-BDD and F8-BDD-N8 is slightly increased
